Assay results reported in article PMC3970758, “A conserved MCM single-stranded DNA binding element is essential for replication initiation”.
Positions count from the first letter of the chain named.

T1: PfMCMN R124A (Pyrococcus furiosus, UniProt Q8U3I4 1-256, R124A)
T1 sequence: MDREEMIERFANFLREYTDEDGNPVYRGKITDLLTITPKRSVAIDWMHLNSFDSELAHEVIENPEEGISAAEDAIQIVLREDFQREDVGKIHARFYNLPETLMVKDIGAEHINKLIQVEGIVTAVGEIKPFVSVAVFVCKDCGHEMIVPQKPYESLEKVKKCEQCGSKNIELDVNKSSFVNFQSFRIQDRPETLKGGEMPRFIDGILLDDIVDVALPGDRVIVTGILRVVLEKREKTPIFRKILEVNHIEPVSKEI

T2: PfMCMN R186A (Pyrococcus furiosus, UniProt Q8U3I4 1-256, R186A)
T2 sequence: T1 sequence with A124R, R186A

T3: PfMCMN K129A (Pyrococcus furiosus, UniProt Q8U3I4 1-256, K129A)
T3 sequence: T1 sequence with A124R, K129A

T4: PfMCMN R124A/R186A (Pyrococcus furiosus, UniProt Q8U3I4 1-256, R124A;R186A)
T4 sequence: T1 sequence with R186A

T5: PfMCMN F202A (Pyrococcus furiosus, UniProt Q8U3I4 1-256, F202A)
T5 sequence: T1 sequence with A124R, F202A

T6: PfMCMN K233A (Pyrococcus furiosus, UniProt Q8U3I4 1-256, K233A)
T6 sequence: T1 sequence with A124R, K233A

B1: 26-mer dsDNA (dsDNA)
DNA 1: ATGGCAGATCTCAATTGGATATCGGC
DNA 2: GCCGATATCCAATTGAGATCTGCCAT
B2: T40 ssDNA (ssDNA)
DNA: TTTTTTTTTTTTTTTTTTTTTTTTTTTTTTTTTTTTTTTT

Columns and labels:
[1] = target: T1, PfMCMN R124A; experiment: EMSA; 5 mM Mg2+; EMSA: 20 mM HEPES pH 7.6, 200 mM NaCl, 5 mM MgCl2, 5 mM bME, 25 C, 30 min, 160 nM DNA; 4-20% TBE PAGE; details: protein: recombinant; tags: His6-SUMO removed by Ulp1; label: 5'-fluorescein on strand 1; blunt
[2] = target: T2, PfMCMN R186A; experiment: as above; details: protein: recombinant; tags: His6-SUMO removed by Ulp1; label: 5'-fluorescein on strand 1; blunt
[3] = target: T3, PfMCMN K129A; experiment: as above; details: protein: recombinant; tags: His6-SUMO removed by Ulp1; label: 5'-fluorescein on strand 1; blunt
[4] = target: T4, PfMCMN R124A/R186A; experiment: EMSA; 5 mM Mg2+; protein 10-40 uM; EMSA: 20 mM HEPES pH 7.6, 200 mM NaCl, 5 mM MgCl2, 5 mM bME, 25 C, 30 min, 160 nM DNA; 4-20% TBE PAGE; details: protein: recombinant; tags: His6-SUMO removed by Ulp1; label: 5'-fluorescein on strand 1; blunt
[5] = target: T5, PfMCMN F202A; experiment: EMSA; 5 mM Mg2+; EMSA: 20 mM HEPES pH 7.6, 200 mM NaCl, 5 mM MgCl2, 5 mM bME, 25 C, 30 min, 160 nM DNA; 4-20% TBE PAGE; details: protein: recombinant; tags: His6-SUMO removed by Ulp1; label: 5'-fluorescein
[6] = target: T6, PfMCMN K233A; experiment: as above; details: protein: recombinant; tags: His6-SUMO removed by Ulp1; label: 5'-fluorescein
[7] = target: T1, PfMCMN R124A; experiment: as above; details: protein: recombinant; tags: His6-SUMO removed by Ulp1; label: 5'-fluorescein
[8] = target: T2, PfMCMN R186A; experiment: as above; details: protein: recombinant; tags: His6-SUMO removed by Ulp1; label: 5'-fluorescein
[9] = target: T3, PfMCMN K129A; experiment: as above; details: protein: recombinant; tags: His6-SUMO removed by Ulp1; label: 5'-fluorescein
[10] = target: T4, PfMCMN R124A/R186A; experiment: EMSA; 5 mM Mg2+; protein 54-270 uM; EMSA: 20 mM HEPES pH 7.6, 200 mM NaCl, 5 mM MgCl2, 5 mM bME, 25 C, 30 min, 160 nM DNA; 4-20% TBE PAGE; details: protein: recombinant; tags: His6-SUMO removed by Ulp1; label: 5'-fluorescein

Binder | binding result [1] | binding result [2] | binding result [3] | binding signal [4] [fold reduction vs WT] | binding result [5] | binding result [6] | binding signal [7] [fold reduction vs WT] | binding signal [8] [fold reduction vs WT] | binding signal [9] [fold reduction vs WT] | binding signal [10] [fold reduction vs WT]
B1 | binds | binds | binds | 3 |  |  |  |  |  | 
B2 |  |  |  |  | binds | binds | 7 | 6 | 4 | 25
